According to patent US20180271992A1:

Key:
human Trop-2 (human) [1] = biological target: human Trop-2 (human) (UniProt P09758); test: cell binding on NCI-N87 cells, anti-mouse-HRP secondary, luminescence
human Trop-2 (human) [2] = biological target: human Trop-2 (human) (UniProt P09758); test: cell binding on NCI-N87 cells, maximum binding compared to murine RS7
human Trop-2 (human) [3] = biological target: human Trop-2 (human) (UniProt P09758); test: cell binding assay on Trop-2 expressing cells, cell line not named

Sequence of human Trop-2 (human) (P09758 27-323): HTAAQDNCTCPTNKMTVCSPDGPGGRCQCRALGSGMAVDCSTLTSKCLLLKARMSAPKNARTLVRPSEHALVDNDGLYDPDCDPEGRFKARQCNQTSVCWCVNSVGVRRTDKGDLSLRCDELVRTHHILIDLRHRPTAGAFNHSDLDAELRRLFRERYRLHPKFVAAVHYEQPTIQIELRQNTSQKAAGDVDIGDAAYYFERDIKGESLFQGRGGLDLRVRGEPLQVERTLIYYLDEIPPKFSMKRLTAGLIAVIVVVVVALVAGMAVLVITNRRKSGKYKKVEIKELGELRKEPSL

| BMax (maximum binding) (relative luminescent units) (human Trop-2 (human) [1]) | Kd (human Trop-2 (human) [1]) [nM] | reduction of maximum binding relative to RS7 (human Trop-2 (human) [2]) [%] | Kd (human Trop-2 (human) [3]) [nM] | Molecule |
| --- | --- | --- | --- | --- |
| 6020 | 0.49 | 50 | – | MAB650 murine monoclonal antibody against human Trop-2 |
| 8470 | – | 25 | – | 162-46.2 murine monoclonal antibody against human Trop-2 |

Continued, molecule first:

| Molecule | BMax (maximum binding) (relative luminescent units) (human Trop-2 (human) [1]) | Kd (human Trop-2 (human) [1]) [nM] | reduction of maximum binding relative to RS7 (human Trop-2 (human) [2]) [%] | Kd (human Trop-2 (human) [3]) [nM] |
| --- | --- | --- | --- | --- |
| hRS7-CL2A-SN-38 antibody-drug conjugate | – | – | – | 1.2 |
| hRS7-CL2-SN-38 antibody-drug conjugate (antibody, INN chains, looked up, V domains shown, SN-38 via CL2 linker) VH: QVQLQQSGSELKKPGASVKVSCKASGYTFTNYGMNWVKQAPGQGLKWMGWINTYTGEPTYTDDFKGRFAFSLDTSVSTAYLQISSLKADDTAVYFCARGGFGSSYWYFDVWGQGSLVTVSS VL: DIQLTQSPSSLSASVGDRVSITCKASQDVSIAVAWYQQKPGKAPKLLIYSASYRYTGVPDRFSGSGSGTDFTLTISSLQPEDFAVYYCQQHYITPLTFGAGTKVEIK | – | – | – | 1.2 |
